Laboratory results as given in patent US20110262748A1.

Assays:
[1] = target: human IgG antibody (manufactured by Lampire Biological Laboratories) (human); assay: column breakthrough binding capacity of human IgG, protein A on crosslinked agarose, 150 cm/hr
[2] = target: human IgG antibody (manufactured by Lampire Biological Laboratories) (human); assay: column breakthrough binding capacity of human IgG, protein A on crosslinked agarose, 500 cm/hr

protein A immobilized on crosslinked agarose (MabSelect Xtra, GE Healthcare Biosciences) (from UniProt P38507 37-327)
binding capacity [1]: 25 mg/mL
binding capacity [2]: 12 mg/mL
